The source of these data is patent US20220275077A1.

The target of experiment [1] is T1, FERD3L (human) (UniProt Q96RJ6).
T1 sequence (looked up): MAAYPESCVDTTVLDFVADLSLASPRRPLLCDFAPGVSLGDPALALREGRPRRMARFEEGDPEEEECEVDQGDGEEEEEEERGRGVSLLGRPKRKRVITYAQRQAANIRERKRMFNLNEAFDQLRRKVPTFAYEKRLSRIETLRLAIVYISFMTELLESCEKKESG
In words: CDI HuProt native protein microarray.

Experiment [2] concerns the target Hnmph1. In words: CDI HuProt native protein microarray.
Experiment [3] has as its target T2, human Interleukin-38 (IL-38) (human) (UniProt Q8WWZ1).
T2 sequence (looked up): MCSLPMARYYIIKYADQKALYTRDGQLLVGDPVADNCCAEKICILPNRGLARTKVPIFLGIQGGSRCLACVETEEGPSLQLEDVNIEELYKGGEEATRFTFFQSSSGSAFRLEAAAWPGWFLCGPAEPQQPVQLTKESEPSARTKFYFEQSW
In words: CDI HuProt native protein microarray.

For experiment [4], the target named is IL-18 (human) (UniProt Q14116). The experiment can be described thus: CDI HuProt native protein microarray.
Experiment [5] has as its target IL-1Ra (human) (UniProt P18510). The experiment can be described thus: CDI HuProt native protein microarray.
Experiment [6] deals with T3, IL-1α (human) (UniProt P01583).
T3 sequence (looked up): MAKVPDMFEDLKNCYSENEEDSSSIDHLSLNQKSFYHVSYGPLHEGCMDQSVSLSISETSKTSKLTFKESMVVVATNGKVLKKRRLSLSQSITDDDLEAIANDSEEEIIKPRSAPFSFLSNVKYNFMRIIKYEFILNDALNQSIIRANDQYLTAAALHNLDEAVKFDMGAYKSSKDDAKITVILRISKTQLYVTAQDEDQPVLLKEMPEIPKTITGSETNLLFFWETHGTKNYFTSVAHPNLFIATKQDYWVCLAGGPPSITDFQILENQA
The experiment can be described thus: CDI HuProt native protein microarray.

Experiment [7] addresses IL-1β (human) (UniProt P01584). The experiment can be described thus: CDI HuProt native protein microarray.
In experiment [8] the target is T4, IL-33 (human) (UniProt O95760).
T4 sequence (looked up): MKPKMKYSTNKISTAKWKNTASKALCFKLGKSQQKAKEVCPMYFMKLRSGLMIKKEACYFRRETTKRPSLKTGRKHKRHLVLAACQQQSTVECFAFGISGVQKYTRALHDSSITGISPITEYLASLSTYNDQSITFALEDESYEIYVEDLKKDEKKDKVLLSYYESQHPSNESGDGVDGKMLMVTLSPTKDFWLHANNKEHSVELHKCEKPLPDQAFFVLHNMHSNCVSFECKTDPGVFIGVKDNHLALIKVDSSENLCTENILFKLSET
In words: CDI HuProt native protein microarray.

The target in experiment [9] is T5, IL-36Ra (human) (UniProt Q9UBH0).
T5 sequence (looked up): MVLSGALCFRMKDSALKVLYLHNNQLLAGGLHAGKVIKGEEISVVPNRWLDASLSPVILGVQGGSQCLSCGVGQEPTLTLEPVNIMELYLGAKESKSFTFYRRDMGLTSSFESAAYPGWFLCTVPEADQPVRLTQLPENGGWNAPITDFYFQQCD
The experiment can be described thus: CDI HuProt native protein microarray.

The target in experiment [10] is T6, IL-36a (human) (UniProt Q9UHA7).
T6 sequence (looked up): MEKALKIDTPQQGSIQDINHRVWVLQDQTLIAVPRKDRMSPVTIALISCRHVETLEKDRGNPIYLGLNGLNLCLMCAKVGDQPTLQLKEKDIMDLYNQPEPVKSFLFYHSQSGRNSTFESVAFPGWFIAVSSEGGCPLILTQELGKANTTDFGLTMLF
The experiment can be described thus: CDI HuProt native protein microarray.

Experiment [11] concerns the target T7, IL-36b (human) (UniProt Q9NZH7).
T7 sequence (looked up): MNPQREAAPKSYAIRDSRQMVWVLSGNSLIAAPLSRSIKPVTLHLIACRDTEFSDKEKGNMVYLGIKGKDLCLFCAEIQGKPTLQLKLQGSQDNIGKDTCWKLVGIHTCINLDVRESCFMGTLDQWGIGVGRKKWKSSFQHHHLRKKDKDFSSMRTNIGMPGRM
In words: CDI HuProt native protein microarray.

Experiment [12] has as its target T8, IL-36g (human) (UniProt Q9NZH8).
T8 sequence (looked up): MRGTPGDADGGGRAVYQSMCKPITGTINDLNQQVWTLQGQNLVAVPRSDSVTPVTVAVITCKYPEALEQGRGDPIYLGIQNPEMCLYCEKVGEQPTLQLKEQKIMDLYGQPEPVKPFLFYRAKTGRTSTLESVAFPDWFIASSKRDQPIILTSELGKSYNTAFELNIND
In words: CDI HuProt native protein microarray.

Experiment [13] deals with T9, IL-37 (human) (UniProt Q9NZH6).
T9 sequence (looked up): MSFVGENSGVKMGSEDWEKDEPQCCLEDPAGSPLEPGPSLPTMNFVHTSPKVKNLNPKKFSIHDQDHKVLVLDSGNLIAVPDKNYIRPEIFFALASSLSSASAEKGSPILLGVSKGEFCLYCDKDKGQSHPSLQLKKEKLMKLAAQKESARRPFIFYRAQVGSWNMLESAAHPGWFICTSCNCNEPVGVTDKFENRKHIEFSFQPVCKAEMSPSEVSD
In words: CDI HuProt native protein microarray.

Experiment [14] deals with T2, human Interleukin-38 (IL-38) (human). In words: CDI HuProt native protein microarray. This is another data set of the same source.
The target is the same in experiment [15]. In words: BLI (Octet QKe), antibody on anti-mouse Fc biosensor, soluble IL-38, 1:1 model.

Where two headings read alike, the source gives them in different places.

Chain of IL-18 (human) (Q14116 whole entry): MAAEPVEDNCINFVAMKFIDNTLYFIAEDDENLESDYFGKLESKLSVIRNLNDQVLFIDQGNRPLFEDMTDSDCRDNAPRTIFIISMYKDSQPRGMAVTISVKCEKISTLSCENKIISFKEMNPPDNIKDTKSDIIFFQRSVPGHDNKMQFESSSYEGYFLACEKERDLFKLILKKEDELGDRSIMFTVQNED
Chain of IL-1Ra (human) (P18510 26-177 limits assumed): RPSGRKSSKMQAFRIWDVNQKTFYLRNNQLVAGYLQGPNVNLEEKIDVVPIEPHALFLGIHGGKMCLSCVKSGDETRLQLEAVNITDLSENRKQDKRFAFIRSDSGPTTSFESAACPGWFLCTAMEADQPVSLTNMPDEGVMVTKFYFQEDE
Chain of IL-1β (human) (P01584 whole entry): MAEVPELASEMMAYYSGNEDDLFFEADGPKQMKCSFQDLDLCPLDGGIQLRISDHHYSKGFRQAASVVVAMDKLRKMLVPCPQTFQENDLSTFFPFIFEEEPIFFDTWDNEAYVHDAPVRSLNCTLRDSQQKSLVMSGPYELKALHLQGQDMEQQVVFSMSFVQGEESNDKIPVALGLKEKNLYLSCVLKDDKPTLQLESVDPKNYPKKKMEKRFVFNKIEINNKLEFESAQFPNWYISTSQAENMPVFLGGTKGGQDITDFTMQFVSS

B1: CD1-M3 (antibody, from a related filing, V domains shown)
VH: EVQLQQSGPELVKPGASVKIPCKASGYTFTDYNMDWVKQSHGKSLEWIGDINPNNGGTIYNQKFKGKATLTVDKSSSTAYMELRSLTSEDTAVYYCSRPYYGYFAYWGQGTLVTVSA
VL: DVVMTQSPLSLPVSLGDQASISCRSSQSLVHSHENTFLHWYLQKPGQSPKLLIYRVSNRFSGVPDRFSGSGSGTDFTLKISRVEAEDLGVYFCSQSTHVPLTFGAGTKLELK
A word on the Kd: it is the concentration at which binding is half-saturated. A higher Kd goes with a looser complex. With B1, the F635 in [1] came out at 19100; in experiment [2], 4130; in experiment [3], 54000. For the same molecule, the Z-score is 49.2 in [1]; 10.6 in experiment [2]; 140 in experiment [3]; -0.016 in experiment [4]; -0.013 in experiment [5]; -0.013 in [6]. The Z-score is -0.016 in experiment [7]; -0.02 in experiment [8]; -0.017 in [9]; -0.008 in [10]; -0.016 in experiment [11]; -0.017 in experiment [12]. Also, the Z-score in experiment [13] was -0.013; in experiment [14] it was 140. Besides, the figures for the s-score in [1], in experiment [2] and in [3] were 26.2, 5 and 90.3, respectively. In addition, the Kd in [15] stood at 0.721 nM.

B2: CD1-M8 (antibody, from a related filing, V domains shown)
VH: EVQLQQSGPELVKPGASVKMSCKASGYTFTDYYIHWVKQSHGKGLEWIGYIFPNNGGNGYSQKFKGKATMTVDKSSSTAYMELRSLTSEDSAVYYCARGGYDAGFVYWGQGTLVTVSA
VL: DIVMSQSPSSLAVSAGEKVTMSCKSSQSLFNSGARKNFLAWYQQKPGQSPKLLIYWASTRESGVPDRFTGSGSGTDFTLTISSVQAEDLAVYYCKQSYYLITFGAGTKLELK
For B2, the F635 is 16300 in [1] and 45600 in experiment [3]. Further, the Z-score in experiment [1] was 50.9; in [4], -0.016; in experiment [5], 0.003; in experiment [6], -0.014; in experiment [7] it was -0.017; in experiment [8] it was -0.014. For the same molecule, the Z-score in [9] was -0.019; in experiment [10], 0.012; in experiment [11] it was -0.01; in experiment [12], -0.008; in [13], -0.016; in experiment [14] it was 142. In addition, the s-score in [1] came to 40.8; in [3] it was 91.5.
